How the values were obtained:
[1] = compound: CC[C@H](C)[C@H](NC(=O)[C@H](CC(C)C)NC(=O)[C@H](CCCNC(=N)N)NC(C)=O)C(=O)N[C@@H](CCCCNC(C)=O)C(=O)Nc1ccc2c(C)cc(=O)oc2c1; assay: (§1) Substrate activity at human N-terminal His-tagged SIRT3 (122 to 391 residues) expressed in Escherichia coli assessed as ratio of Kcat to Km measured after 1 hr in presence of NAD+ and trypsin by Michaelis-Menten kinetic model based fluorescence assay
[2] = compound: CC(=O)NCCCC[C@H](NC(=O)[C@H](CC(C)C)NC(=O)[C@H](CCCCN)NC(=O)[C@H](Cc1ccc(O)cc1)NC(C)=O)C(=O)Nc1ccc2c(C)cc(=O)oc2c1; assay: as §1
[3] = compound: CC[C@H](C)[C@H](NC(=O)[C@H](CC(C)C)NC(=O)[C@H](CCCNC(=N)N)NC(C)=O)C(=O)N[C@@H](CCCCNC(C)=O)C(=O)Nc1ccc2c(C)cc(=O)oc2c1; assay: (§2) Substrate activity at human N-terminal His-tagged SIRT3 (122 to 391 residues) expressed in Escherichia coli assessed as Kcat measured after 1 hr in presence of NAD+ and trypsin by Michaelis-Menten kinetic model based fluorescence assay
[4] = compound: CC(=O)NCCCC[C@H](NC(=O)[C@H](CC(C)C)NC(=O)[C@H](CCCCN)NC(=O)[C@H](Cc1ccc(O)cc1)NC(C)=O)C(=O)Nc1ccc2c(C)cc(=O)oc2c1; assay: as §2
[5] = compound: CC[C@H](C)[C@H](NC(=O)[C@H](CC(C)C)NC(=O)[C@H](CCCNC(=N)N)NC(C)=O)C(=O)N[C@@H](CCCCNC(C)=O)C(=O)Nc1ccc2c(C)cc(=O)oc2c1; assay: (§3) Substrate activity at human N-terminal His-tagged SIRT3 (122 to 391 residues) expressed in Escherichia coli assessed as Vmax measured after 1 hr in presence of NAD+ and trypsin by Michaelis-Menten kinetic model based fluorescence assay
[6] = compound: CC(=O)NCCCC[C@H](NC(=O)[C@H](CC(C)C)NC(=O)[C@H](CCCCN)NC(=O)[C@H](Cc1ccc(O)cc1)NC(C)=O)C(=O)Nc1ccc2c(C)cc(=O)oc2c1; assay: as §3
[7] = compound: CC[C@H](C)[C@H](NC(=O)[C@H](CC(C)C)NC(=O)[C@H](CCCNC(=N)N)NC(C)=O)C(=O)N[C@@H](CCCCNC(C)=O)C(=O)Nc1ccc2c(C)cc(=O)oc2c1; assay: (§4) Substrate activity at human N-terminal His-tagged SIRT3 (122 to 391 residues) expressed in Escherichia coli assessed as Km measured after 1 hr in presence of NAD+ and trypsin by Michaelis-Menten kinetic model based fluorescence assay
[8] = compound: CC(=O)NCCCC[C@H](NC(=O)[C@H](CC(C)C)NC(=O)[C@H](CCCCN)NC(=O)[C@H](Cc1ccc(O)cc1)NC(C)=O)C(=O)Nc1ccc2c(C)cc(=O)oc2c1; assay: as §4

B1: NAD-dependent protein deacetylase sirtuin-3, mitochondrial (Homo sapiens), Q9NTG7 (protein)
chain: MAFWGWRAAAALRLWGRVVERVEAGGGVGPFQACGCRLVLGGRDDVSAGLRGSHGARGEPLDPARPLQRPPRPEVPRAFRRQPRAAAPSFFFSSIKGGRRSISFSVGASSVVGSGGSSDKGKLSLQDVAELIRARACQRVVVMVGAGISTPSGIPDFRSPGSGLYSNLQQYDLPYPEAIFELPFFFHNPKPFFTLAKELYPGNYKPNVTHYFLRLLHDKGLLLRLYTQNIDGLERVSGIPASKLVEAHGTFASATCTVCQRPFPGEDIRADVMADRVPRCPVCTGVVKPDIVFFGEPLPQRFLLHVVDFPMADLLLILGTSLEVEPFASLTEAVRSSVPRLLINRDLVGPLAWHPRSRDVAQLGDVVHGVESLVELLGWTEEMRDLVQRETGKLDGPDK
kcat/Km [1]: 850 M⁻¹ s⁻¹ | kcat/Km [2]: 26.1 M⁻¹ s⁻¹ | kcat [3]: 5.58 10^-3/s | kcat [4]: 2.44 10^-3/s | Vmax [5]: 33.5 nM/min | Vmax [6]: 14.6 nM/min | Km [7]: 6.52 µM | Km [8]: 63.4 µM
